Sequences and labels used below:
B1: IGF2R domain 11 with asparagine at position 1544 (E1544N) (receptor)
chain: NEHDDCQVTNPSTGHLFDLSSLSGRAGFTAAYSNKGLVYMSICGENENCPPGVGACFGQTRISVGKANKRLRYVDQVLQLVYKDGSPCPSKSGLSYKSVISFVCRPEAGPTNRPMLISLDKQTCTLFFSWHTPLACEQATHHHHHH
B2: IGF2R domain 11 with tryptophan at position 1544 (E1544W) (receptor)
chain: B1 chain with N34W
B3: IGF2R domain 11 with phenylalanine at position 1544 (E1544F) (receptor)
chain: B1 chain with N34F
B4: IGF2R domain 11 with tyrosine at position 1544 (E1544Y) (receptor)
chain: B1 chain with N34Y
B5: IGF2R domain 11 with proline at position 1544 (E1544P) (receptor)
chain: B1 chain with N34P
B6: IGF2R domain 11 with arginine at position 1544 (E1544R) (receptor)
chain: B1 chain with N34R
B7: IGF2R domain 11 with glycine at position 1544 (E1544G) (receptor)
chain: B1 chain with N34G
B8: IGF2R domain 11 with isoleucine at position 1544 (E1544I) (receptor)
chain: B1 chain with N34I
B9: IGF2R domain 11 with threonine at position 1544 (E1544T) (receptor)
chain: B1 chain with N34T
B10: IGF2R domain 11 with aspartate at position 1544 (E1544D) (receptor)
chain: B1 chain with N34D
B11: IGF2R domain 11 with glutamine at position 1544 (E1544Q) (receptor)
chain: B1 chain with N34Q
B12: IGF2R domain 11 with serine at position 1544 (E1544S) (receptor)
chain: B1 chain with N34S
B13: IGF2R domain 11 with histidine at position 1544 (E1544H) (receptor)
chain: B1 chain with N34H
B14: IGF2R domain 11 with methionine at position 1544 (E1544M) (receptor)
chain: B1 chain with N34M
B15: IGF2R domain 11 with leucine at position 1544 (E1544L) (receptor)
chain: B1 chain with N34L
B16: IGF2R domain 11 G1619R (amino acids 1511-1650, C-terminal His6 tag, from Pichia pastoris) (receptor)
chain: B1 chain with N34E, G109R
notes: also called polymorphism G1619R
B17: IGF2R domain 11 Y1542A (amino acids 1511-1650, C-terminal His6 tag, from Pichia pastoris) (receptor)
chain: B1 chain with Y32A, N34E
B18: IGF2R domain 11 K1545A (amino acids 1511-1650, C-terminal His6 tag, from Pichia pastoris) (receptor)
chain: B1 chain with N34E, K35A
B19: IGF2R domain 11 S1543A (amino acids 1511-1650, C-terminal His6 tag, from Pichia pastoris) (receptor)
chain: B1 chain with S33A, N34E
B20: IGF2R domain 11 T1570A (amino acids 1511-1650, C-terminal His6 tag, from Pichia pastoris) (receptor)
chain: B1 chain with N34E, T60A

Changes are numbered by the printed parent chain. Names may count otherwise.

The first test deals with T1, recombinant human IGF-II (Insulin-like Growth Factor II) (human, UniProt P01344 25-91, biotinylated (Biotinyl-IGF-II, GroPep) where immobilised in SPR, site not stated; not biotinylated in ITC and as SPR analyte).
T1 construct: also called IGF2; IGF-2
T1 sequence (P01344 25-91 limits assumed): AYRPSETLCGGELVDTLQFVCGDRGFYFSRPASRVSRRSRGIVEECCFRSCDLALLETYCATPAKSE
The test can be described thus: SPR, IGF-II immobilised, kinetic fit. A digest of the protocol:
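Kd, together with association and dissociation rates, was determined by globally fitting blank-flow-cell- and buffer-subtracted sensorgrams in BIAevaluation 4.0.1. The sensorgrams were recorded on a BIAcore 3000 at 25° C in HBS-EP, flowing at 40 μl/min, by injecting His-tag-purified, Pichia pastoris-secreted domain 11 proteins in duplicate and in randomised order over ~50 RU biotinylated IGF-II on a streptavidin Sensor Chip SA. Each injection lasted 2 min, followed by 100 s dissociation and regeneration with 2 M MgCl₂. Analyte was run at 4096–8 nM, except for three constructs run at 16384–32 nM.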
On the technique in general: SPR reads the build-up and loss of mass on a sensor chip optically.
On to B1, for which the Kd – broadly, the concentration at which binding is half-saturated – amounted to 141 nM; the koff (in general, a measure of how fast the partners let go of each other) was 0.122 s⁻¹; the kon (in general, the rate constant with which the complex forms) was found to be 867000 M⁻¹ s⁻¹.

With B2, the equilibrium dissociation constant (Kd) is 62.8 nM, the koff was found to be 0.0588 s⁻¹ and the on-rate (kon) amounted to 936000 M⁻¹ s⁻¹.

B3: the Kd was determined as 69.4 nM, the koff stood at 0.0791 s⁻¹ and the kon is 1.14e+06 M⁻¹ s⁻¹.

Turning to B4, the Kd amounted to 65 nM, the dissociation rate constant (koff) is 0.0614 s⁻¹ and the on-rate (kon) came out at 944000 M⁻¹ s⁻¹.

On to B5, for which the Kd was 234 nM, the dissociation rate constant (koff) came to 0.172 s⁻¹ and the kon was 734000 M⁻¹ s⁻¹.

For B6, the Kd came to 17.8 nM, the koff was 0.0407 s⁻¹ and the kon worked out at 2.29e+06 M⁻¹ s⁻¹.

For B7, the Kd is 199 nM, the koff stood at 0.219 s⁻¹ and the kon was found to be 1.1e+06 M⁻¹ s⁻¹.

For the molecule B8, the Kd was 49.9 nM, the koff is 0.0649 s⁻¹ and the kon was found to be 1.3e+06 M⁻¹ s⁻¹.

Regarding B9, the Kd came out at 69.3 nM, the koff was determined as 0.0692 s⁻¹ and the on-rate (kon) was 998000 M⁻¹ s⁻¹.

With B10, the Kd came out at 230 nM, the koff stood at 0.14 s⁻¹ and the kon was found to be 608000 M⁻¹ s⁻¹.

For the molecule B11, the Kd worked out at 32.8 nM, the off-rate (koff) is 0.0578 s⁻¹ and the kon came out at 1.76e+06 M⁻¹ s⁻¹.

As for B12, the dissociation constant (Kd) came to 23.3 nM, the koff worked out at 0.0494 s⁻¹ and the kon worked out at 2.12e+06 M⁻¹ s⁻¹.

In the case of B13, the Kd was determined as 38.3 nM, the koff was found to be 0.0689 s⁻¹ and the kon came to 1.8e+06 M⁻¹ s⁻¹.

On to B14, for which the Kd came out at 44.6 nM, the koff turned out to be 0.0566 s⁻¹ and the kon was 1.27e+06 M⁻¹ s⁻¹.

Take B15: the Kd was determined as 62.4 nM, the koff came out at 0.0655 s⁻¹ and the kon was determined as 1.05e+06 M⁻¹ s⁻¹.

The target in another test is T1, recombinant human IGF-II (Insulin-like …). The test is described as follows: SPR, steady-state KD relative to wild type. An outline of the steps: (§1)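 Duplicate 2 min injections of His-tag-purified, Pichia pastoris-secreted domain 11 proteins at 4096–8 nM (16384–32 nM for three constructs) passed over ~50 RU biotinylated IGF-II on a streptavidin Sensor Chip SA. A BIAcore 3000 ran at 25° C in HBS-EP at 40 μl/min, with blank-flow-cell and buffer-injection responses subtracted. Equilibrium responses were fitted in BIAevaluation to a steady-state affinity model to yield Kd, and relative affinity scales each value to the unaltered domain 11 protein.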
Consider B1, for which the “Relative Affinity” value is 0.88 fold (wild type = 1.00).

Consider B2, for which the “Relative Affinity” value is 1.94 fold (wild type = 1.00).

In the case of B3, the “Relative Affinity” value was 1.83 fold (wild type = 1.00).

As to B4, the “Relative Affinity” value was 1.8 fold (wild type = 1.00).

Regarding B5, the “Relative Affinity” value is 0.49 fold (wild type = 1.00).

Take B6: the “Relative Affinity” value was 7.33 fold (wild type = 1.00).

In the case of B7, the “Relative Affinity” value is 0.57 fold (wild type = 1.00).

With B8, the “Relative Affinity” value was 2.43 fold (wild type = 1.00).

B9: the “Relative Affinity” value was 1.72 fold (wild type = 1.00).

With B10, the “Relative Affinity” value was 0.48 fold (wild type = 1.00).

Take B11: the “Relative Affinity” value was 3.87 fold (wild type = 1.00).

As for B12, the “Relative Affinity” value was 5.24 fold (wild type = 1.00).

B13: the “Relative Affinity” value was 3.07 fold (wild type = 1.00).

In the case of B14, the “Relative Affinity” value was 2.75 fold (wild type = 1.00).

Turning to B15, the “Relative Affinity” value is 2.02 fold (wild type = 1.00).

The next test has the same target. The test can be described thus: SPR, steady-state KD relative to wild type. This is another data set of the same source. As to the method:
[…]. Values are the mean±S.E.M. of three separate experiments.
(§2) Kinetic analysis by Surface Plasmon Resonance (SPR) was conducted on a BIAcore 3000 biosensor (BIAcore, Uppsala, Sweden) at 25° C. in HBS-EP (10 mM HEPES, pH 7.4, 150 mM NaCl, 3 mM EDTA, 0.005% surfactant P20) at a flow rate of 40 μl/min. […] Kinetic experiments consisted of a two minute injection of analyte followed by a 100 s dissociation phase in running buffer, after which the binding surface was regenerated with a 2 minute injection of 2 M MgCl₂. A blank flow cell was used for in-line reference subtraction of changes due to differences in refractive index of running buffer versus sample and a buffer-only injection was used to subtract instrument noise and drift. Injections were performed in duplicate for each concentration and in a randomised order. Kinetic parameters were determined by global fitting of sensorgrams to a two-state (conformational change) binding model using BIAevaluation software version 4.0.1. In all cases the minor component made an insignificant contribution to the overall affinity and as such only the kinetic parameters of the major binding component were used. For each interaction the dissociation affinity constant (KD) was also calculated by fitting of the response of each concentration at equilibrium to a steady-state affinity model using BIAevaluation. In order to investigate the influence of ionic strength, kinetic experiments were conducted in HBS-EP running buffers containing the desired NaCl concentration. In each case, analyte samples were made up in the appropriate running buffer prior to injection.
Following purification, the binding of each mutant construct to IGF2 was assessed by SPR and compared to the wild type domain 11.
In the case of B16, the “Relative Affinity” value was 0.9 fold (wild type = 1.00).

For B17, the “Relative Affinity” value is 0.16 fold (wild type = 1.00).

On to B18, for which the “Relative Affinity” value was 0.36 fold (wild type = 1.00).

Turning to B19, the “Relative Affinity” value was 0.39 fold (wild type = 1.00).

Regarding B20, the “Relative Affinity” value is 0.11 fold (wild type = 1.00).

For another test the target is unchanged. The test can be described thus: SPR, IGF-II immobilised, steady state. An outline of the steps: as §1
For B1, the dissociation constant Kd is 118 nM.

As for B2, the Kd stood at 53.2 nM.

B3: the Kd amounted to 56.4 nM.

As for B4, the Kd came to 57.4 nM.

Regarding B5, the Kd turned out to be 211 nM.

Consider B6, for which the Kd was determined as 14.1 nM.

With B7, the dissociation constant Kd amounted to 180 nM.

Turning to B8, the Kd turned out to be 42.5 nM.

With B9, the Kd worked out at 60 nM.

With B10, the Kd was found to be 213 nM.

For the molecule B11, the equilibrium dissociation constant (Kd) stood at 26.7 nM.

As for B12, the Kd was found to be 19.7 nM.

For B13, the Kd came out at 33.7 nM.

With B14, the Kd worked out at 37.6 nM.

On to B15, for which the Kd came out at 51.1 nM.

The target is the same in the next test. The test is described as follows: SPR, IGF-II immobilised, steady state. The source holds these as a separate data set. As to the method: as §2
(§3) Following purification, the binding of each mutant construct to IGF2 was assessed by SPR and compared to the wild type domain 11. Sensorgrams were generated using biotinylated IGF2 immobilised to the cell surface and mutant domain 11 proteins as the free analyte (FIG. 4).
For B17, the Kd is 633 nM.

For B18, the Kd amounted to 289 nM.

As to B19, the dissociation constant (Kd) was determined as 262 nM.

As to B20, the Kd came to 930 nM.

A further test has the same target. The test can be described thus: SPR, IGF-II immobilised, kinetic fit. The source holds these as a separate data set. As to the method:
as §2, §3
Consider B17, for which the Kd came to 639 nM, the koff was found to be 0.169 s⁻¹ and the on-rate (kon) turned out to be 265000 M⁻¹ s⁻¹.

B18: the Kd came out at 287 nM, the dissociation rate constant (koff) amounted to 0.078 s⁻¹ and the kon is 273000 M⁻¹ s⁻¹.

As to B19, the Kd came to 260 nM, the koff was 0.096 s⁻¹ and the kon is 369000 M⁻¹ s⁻¹.

As for B20, the Kd came out at 954 nM, the koff is 0.281 s⁻¹ and the kon amounted to 295000 M⁻¹ s⁻¹.

For the origin of these results see patent US20090304651A1 (published 2009).
